Measured values taken from article PMC10786891, “Massively parallel profiling of RNA-targeting CRISPR-Cas13d”.

T1: EsCas13d, nuclease-dead (Eubacterium siraeum, UniProt B0MS50, R295A;H300A;R849A;H854A)
T1 sequence: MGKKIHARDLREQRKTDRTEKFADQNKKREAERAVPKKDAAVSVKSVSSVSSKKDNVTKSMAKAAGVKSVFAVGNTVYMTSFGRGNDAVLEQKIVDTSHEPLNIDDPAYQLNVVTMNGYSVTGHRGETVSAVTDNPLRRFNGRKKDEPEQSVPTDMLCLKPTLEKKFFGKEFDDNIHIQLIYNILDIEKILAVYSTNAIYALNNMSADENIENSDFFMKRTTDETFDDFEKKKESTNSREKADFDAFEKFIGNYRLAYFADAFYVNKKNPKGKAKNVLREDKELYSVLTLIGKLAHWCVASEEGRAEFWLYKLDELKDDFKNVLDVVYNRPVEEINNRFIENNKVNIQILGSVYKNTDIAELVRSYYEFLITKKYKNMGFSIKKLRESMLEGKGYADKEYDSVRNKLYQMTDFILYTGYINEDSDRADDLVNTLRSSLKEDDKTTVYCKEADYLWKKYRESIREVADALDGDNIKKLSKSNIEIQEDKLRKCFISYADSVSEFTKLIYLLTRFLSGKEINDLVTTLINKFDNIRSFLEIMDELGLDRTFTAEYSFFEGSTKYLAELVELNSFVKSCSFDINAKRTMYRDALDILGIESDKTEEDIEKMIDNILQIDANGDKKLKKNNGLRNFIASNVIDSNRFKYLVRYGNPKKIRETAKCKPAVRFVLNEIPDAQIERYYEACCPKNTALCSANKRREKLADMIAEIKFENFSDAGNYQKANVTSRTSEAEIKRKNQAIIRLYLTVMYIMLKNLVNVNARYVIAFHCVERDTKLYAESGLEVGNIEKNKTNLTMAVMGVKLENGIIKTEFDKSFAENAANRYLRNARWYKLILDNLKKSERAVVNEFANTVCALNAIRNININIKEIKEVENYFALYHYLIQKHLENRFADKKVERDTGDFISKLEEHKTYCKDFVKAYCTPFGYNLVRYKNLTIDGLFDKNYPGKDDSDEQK

B1: target 2 MT 5'PFS UCU 3'PFS AAC (mixed)
RNA 1: CACCCGUGCAAAAUUGCAGGGGUCUAAAACCUUCUCCAAAUUGUUUCAUCCU
RNA 2: GGGAAUGGAUCCACAUCUACGAAUUCUCUAGGAUGAAACAAUUUGGAGAAGAACAGAUCGGAAGAGCACACGU
B2: target 2 MT 5'PFS UUU 3'PFS CGC (mixed)
RNA 1: CACCCGUGCAAAAUUGCAGGGGUCUAAAACCUUCUCCAAAUUGUUUCAUCCU
RNA 2: GGGAAUGGAUCCACAUCUACGAAUUCUUUAGGAUGAAACAAUUUGGAGAAGCGCAGAUCGGAAGAGCACACGU
B3: target 2 MT 5'PFS UCU 3'PFS AAG (mixed)
RNA 1: CACCCGUGCAAAAUUGCAGGGGUCUAAAACCUUCUCCAAAUUGUUUCAUCCU
RNA 2: GGGAAUGGAUCCACAUCUACGAAUUCUCUAGGAUGAAACAAUUUGGAGAAGAAGAGAUCGGAAGAGCACACGU
B4: target 2 MT 5'PFS UUU 3'PFS CGA (mixed)
RNA 1: CACCCGUGCAAAAUUGCAGGGGUCUAAAACCUUCUCCAAAUUGUUUCAUCCU
RNA 2: GGGAAUGGAUCCACAUCUACGAAUUCUUUAGGAUGAAACAAUUUGGAGAAGCGAAGAUCGGAAGAGCACACGU
B5: target 2 MT 5'PFS AAC 3'PFS UUA (mixed)
RNA 1: CACCCGUGCAAAAUUGCAGGGGUCUAAAACCUUCUCCAAAUUGUUUCAUCCU
RNA 2: GGGAAUGGAUCCACAUCUACGAAUUCAACAGGAUGAAACAAUUUGGAGAAGUUAAGAUCGGAAGAGCACACGU
B6: target 1 insA 3' of 8,insG 3' of 6 (mixed)
RNA 1: CACCCGUGCAAAAAUGCAGGGGUCUAAAACUGAGCGGAUAACCUCUCUAUGG
RNA 2: GGGAAUGGAUCCACAUCUACGAAUUCGUACCAUAGAGAGGUUAUACCGGCUCACCGAGAUCGGAAGAGCACACGU
B7: target 2 MT 5'PFS CUU 3'PFS CUU (mixed)
RNA 1: CACCCGUGCAAAAUUGCAGGGGUCUAAAACCUUCUCCAAAUUGUUUCAUCCU
RNA 2: GGGAAUGGAUCCACAUCUACGAAUUCCUUAGGAUGAAACAAUUUGGAGAAGCUUAGAUCGGAAGAGCACACGU
B8: target 2 MT 5'PFS UGU 3'PFS UCU (mixed)
RNA 1: CACCCGUGCAAAAUUGCAGGGGUCUAAAACCUUCUCCAAAUUGUUUCAUCCU
RNA 2: GGGAAUGGAUCCACAUCUACGAAUUCUGUAGGAUGAAACAAUUUGGAGAAGUCUAGAUCGGAAGAGCACACGU
B9: target 2 MT 5'PFS CAU 3'PFS CGG (mixed)
RNA 1: CACCCGUGCAAAAUUGCAGGGGUCUAAAACCUUCUCCAAAUUGUUUCAUCCU
RNA 2: GGGAAUGGAUCCACAUCUACGAAUUCCAUAGGAUGAAACAAUUUGGAGAAGCGGAGAUCGGAAGAGCACACGU
B10: target 2 MT 5'PFS UGU 3'PFS UCG (mixed)
RNA 1: CACCCGUGCAAAAUUGCAGGGGUCUAAAACCUUCUCCAAAUUGUUUCAUCCU
RNA 2: GGGAAUGGAUCCACAUCUACGAAUUCUGUAGGAUGAAACAAUUUGGAGAAGUCGAGAUCGGAAGAGCACACGU
B11: target 2 MT 5'PFS CAU 3'PFS CGA (mixed)
RNA 1: CACCCGUGCAAAAUUGCAGGGGUCUAAAACCUUCUCCAAAUUGUUUCAUCCU
RNA 2: GGGAAUGGAUCCACAUCUACGAAUUCCAUAGGAUGAAACAAUUUGGAGAAGCGAAGAUCGGAAGAGCACACGU
B12: target 2 MT 5'PFS AAU 3'PFS UCG (mixed)
RNA 1: CACCCGUGCAAAAUUGCAGGGGUCUAAAACCUUCUCCAAAUUGUUUCAUCCU
RNA 2: GGGAAUGGAUCCACAUCUACGAAUUCAAUAGGAUGAAACAAUUUGGAGAAGUCGAGAUCGGAAGAGCACACGU
B13: target 2 MT 5'PFS CGG 3'PFS CGA (mixed)
RNA 1: CACCCGUGCAAAAUUGCAGGGGUCUAAAACCUUCUCCAAAUUGUUUCAUCCU
RNA 2: GGGAAUGGAUCCACAUCUACGAAUUCCGGAGGAUGAAACAAUUUGGAGAAGCGAAGAUCGGAAGAGCACACGU
B14: target 2 MT 5'PFS CGG 3'PFS CGC (mixed)
RNA 1: CACCCGUGCAAAAUUGCAGGGGUCUAAAACCUUCUCCAAAUUGUUUCAUCCU
RNA 2: GGGAAUGGAUCCACAUCUACGAAUUCCGGAGGAUGAAACAAUUUGGAGAAGCGCAGAUCGGAAGAGCACACGU
B15: target 2 MT 5'PFS UUA 3'PFS GCA (mixed)
RNA 1: CACCCGUGCAAAAUUGCAGGGGUCUAAAACCUUCUCCAAAUUGUUUCAUCCU
RNA 2: GGGAAUGGAUCCACAUCUACGAAUUCUUAAGGAUGAAACAAUUUGGAGAAGGCAAGAUCGGAAGAGCACACGU
B16: target 2 MT 5'PFS UUA 3'PFS GCC (mixed)
RNA 1: CACCCGUGCAAAAUUGCAGGGGUCUAAAACCUUCUCCAAAUUGUUUCAUCCU
RNA 2: GGGAAUGGAUCCACAUCUACGAAUUCUUAAGGAUGAAACAAUUUGGAGAAGGCCAGAUCGGAAGAGCACACGU
B17: target 1 G15A,C22A (mixed)
RNA 1: CACCCGUGCAAAAAUGCAGGGGUCUAAAACUGAGCGGAUAACCUCUCUAUGG
RNA 2: GGGAAUGGAUCCACAUCUACGAAUUCGUAACAUAGAAAGGUUAUCCGCUCACCGAGAUCGGAAGAGCACACGU
B18: target 2 MT 5'PFS UCA 3'PFS UUA (mixed)
RNA 1: CACCCGUGCAAAAUUGCAGGGGUCUAAAACCUUCUCCAAAUUGUUUCAUCCU
RNA 2: GGGAAUGGAUCCACAUCUACGAAUUCUCAAGGAUGAAACAAUUUGGAGAAGUUAAGAUCGGAAGAGCACACGU
B19: target 2 MT 5'PFS UCA 3'PFS UUC (mixed)
RNA 1: CACCCGUGCAAAAUUGCAGGGGUCUAAAACCUUCUCCAAAUUGUUUCAUCCU
RNA 2: GGGAAUGGAUCCACAUCUACGAAUUCUCAAGGAUGAAACAAUUUGGAGAAGUUCAGAUCGGAAGAGCACACGU
B20: target 2 MT 5'PFS GGC 3'PFS UCC (mixed)
RNA 1: CACCCGUGCAAAAUUGCAGGGGUCUAAAACCUUCUCCAAAUUGUUUCAUCCU
RNA 2: GGGAAUGGAUCCACAUCUACGAAUUCGGCAGGAUGAAACAAUUUGGAGAAGUCCAGAUCGGAAGAGCACACGU
B21: target 2 MT 5'PFS GGC 3'PFS UCA (mixed)
RNA 1: CACCCGUGCAAAAUUGCAGGGGUCUAAAACCUUCUCCAAAUUGUUUCAUCCU
RNA 2: GGGAAUGGAUCCACAUCUACGAAUUCGGCAGGAUGAAACAAUUUGGAGAAGUCAAGAUCGGAAGAGCACACGU
B22: target 2 MT 5'PFS GCG 3'PFS CGG (mixed)
RNA 1: CACCCGUGCAAAAUUGCAGGGGUCUAAAACCUUCUCCAAAUUGUUUCAUCCU
RNA 2: GGGAAUGGAUCCACAUCUACGAAUUCGCGAGGAUGAAACAAUUUGGAGAAGCGGAGAUCGGAAGAGCACACGU
B23: target 2 MT 5'PFS GGC 3'PFS UCG (mixed)
RNA 1: CACCCGUGCAAAAUUGCAGGGGUCUAAAACCUUCUCCAAAUUGUUUCAUCCU
RNA 2: GGGAAUGGAUCCACAUCUACGAAUUCGGCAGGAUGAAACAAUUUGGAGAAGUCGAGAUCGGAAGAGCACACGU
B24: target 2 MT 5'PFS UAG 3'PFS ACU (mixed)
RNA 1: CACCCGUGCAAAAUUGCAGGGGUCUAAAACCUUCUCCAAAUUGUUUCAUCCU
RNA 2: GGGAAUGGAUCCACAUCUACGAAUUCUAGAGGAUGAAACAAUUUGGAGAAGACUAGAUCGGAAGAGCACACGU
B25: target 2 MT 5'PFS AUU 3'PFS CAC (mixed)
RNA 1: CACCCGUGCAAAAUUGCAGGGGUCUAAAACCUUCUCCAAAUUGUUUCAUCCU
RNA 2: GGGAAUGGAUCCACAUCUACGAAUUCAUUAGGAUGAAACAAUUUGGAGAAGCACAGAUCGGAAGAGCACACGU
B26: target 2 MT 5'PFS GGC 3'PFS UCU (mixed)
RNA 1: CACCCGUGCAAAAUUGCAGGGGUCUAAAACCUUCUCCAAAUUGUUUCAUCCU
RNA 2: GGGAAUGGAUCCACAUCUACGAAUUCGGCAGGAUGAAACAAUUUGGAGAAGUCUAGAUCGGAAGAGCACACGU
B27: target 2 MT 5'PFS GGU 3'PFS UAC (mixed)
RNA 1: CACCCGUGCAAAAUUGCAGGGGUCUAAAACCUUCUCCAAAUUGUUUCAUCCU
RNA 2: GGGAAUGGAUCCACAUCUACGAAUUCGGUAGGAUGAAACAAUUUGGAGAAGUACAGAUCGGAAGAGCACACGU
B28: target 1 insC 3' of 9,insA 3' of 3 (mixed)
RNA 1: CACCCGUGCAAAAAUGCAGGGGUCUAAAACUGAGCGGAUAACCUCUCUAUGG
RNA 2: GGGAAUGGAUCCACAUCUACGAAUUCGUACCAUAGAGAGGUUACUCCGCUACACCGAGAUCGGAAGAGCACACGU

These binders were tested against T1, EsCas13d, nuclease-dead (assay: crRNA (strand 1, pre-loaded); Mg2+; 40 mM Tris-HCl pH 7.5, 150 mM NaCl, 6 mM MgCl2, 1 mM DTT, 0.1% Tween-20, 0.2 mg/ml BSA; 25 C; 10 min per concentration, then washed). Details: tags: His6-TwinStrep-SUMO cleaved; N-terminal SNAP kept (SNAP-Surface 488); label: 3' end held by stalled T7 RNA polymerase.
B1 gave a Kd of 9.5 ± 1.7 nM. B2 showed a Kd of 6.4 ± 0.5 nM. For B3, the Kd was 20 ± 6 nM. Work on B4 yielded a Kd of 8 ± 0.9 nM. Binder B5 has a Kd of 7.4 ± 1.7 nM. For B6, the Kd was 17.5 ± 0.9 nM. Binder B7 has a Kd of 4.7 ± 0.5 nM. B8 was tested, and the Kd was 17.7 ± 2.2 nM. B9 showed a Kd of 2.83 ± 0.35 nM. In the case of B10, the Kd is reported as 15.8 ± 2.5 nM. B11 was tested, and the Kd was 3.8 ± 0.7 nM. In the case of B12, the Kd is reported as 6.4 ± 1 nM. Work on B13 yielded a Kd of 3 ± 0.3 nM. Binder B14 has a Kd of 3.81 ± 0.28 nM. B15 was tested, and the Kd was 14.7 ± 2.1 nM. In the case of B16, the Kd is reported as 37 ± 12 nM. Work on B17 yielded a Kd of 20.6 ± 2.7 nM. For B18, the Kd was 7.2 ± 1.1 nM. Binder B19 has a Kd of 10.3 ± 2.3 nM. B20 gave a Kd of 36 ± 9 nM. B21 showed a Kd of 20.6 ± 3.1 nM. For B22, the Kd was 11.9 ± 1.2 nM. In the case of B23, the Kd is reported as 19.8 ± 3.1 nM. With B24 the Kd was 4.5 ± 0.5 nM. B25 showed a Kd of 7.2 ± 0.7 nM. B26 showed a Kd of 18.9 ± 1.7 nM. B27 showed a Kd of 15.9 ± 1.8 nM. B28 was tested, and the Kd was 11.1 ± 0.6 nM.
